The record followed here is patent WO2009138494A2 (dated 2009).

Common to all, as to assay: ELISA: TLR coated at 2 ug/ml, periplasmic extract of the clone, anti-VHH detection, OD against no-Nanobody control
(An ELISA detects its analyte on a solid surface through an enzyme-linked reagent.)

The target of assay [1] is T1, recombinant human TLR4/MD2 (rhTLR4/MD2), R&D Systems cat no: 3146-TM/CF (human, UniProt O00206 24-631; Q9Y6Y9 17-160, limits assumed).
T1 construct: Bought protein, coated on ELISA plates
T1 sequence (O00206 24-631 limits assumed, chain 1 of 2): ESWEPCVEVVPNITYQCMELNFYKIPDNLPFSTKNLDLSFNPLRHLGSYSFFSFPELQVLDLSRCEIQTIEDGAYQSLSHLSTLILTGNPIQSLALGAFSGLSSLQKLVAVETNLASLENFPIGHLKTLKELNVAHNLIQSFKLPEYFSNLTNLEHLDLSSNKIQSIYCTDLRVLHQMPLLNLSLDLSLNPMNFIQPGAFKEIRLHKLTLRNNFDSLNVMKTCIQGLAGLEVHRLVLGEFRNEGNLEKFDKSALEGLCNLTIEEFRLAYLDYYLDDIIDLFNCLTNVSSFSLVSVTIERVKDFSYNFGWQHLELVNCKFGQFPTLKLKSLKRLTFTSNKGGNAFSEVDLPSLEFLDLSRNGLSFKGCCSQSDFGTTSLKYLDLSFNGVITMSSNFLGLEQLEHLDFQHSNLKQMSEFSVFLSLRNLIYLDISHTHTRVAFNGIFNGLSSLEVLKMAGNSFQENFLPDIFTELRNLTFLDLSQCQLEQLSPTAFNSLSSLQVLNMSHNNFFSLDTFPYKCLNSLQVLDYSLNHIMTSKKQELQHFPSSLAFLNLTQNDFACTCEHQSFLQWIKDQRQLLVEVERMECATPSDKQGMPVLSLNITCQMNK
T1 sequence (Q9Y6Y9 17-160 limits assumed, chain 2 of 2): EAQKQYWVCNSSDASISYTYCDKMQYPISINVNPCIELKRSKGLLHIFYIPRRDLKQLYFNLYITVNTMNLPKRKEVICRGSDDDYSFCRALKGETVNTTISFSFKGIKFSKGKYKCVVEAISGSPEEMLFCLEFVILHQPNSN

The target in assay [2] is T2, recombinant murine TLR3, R&D Systems cat no: 3005-TR (murine, UniProt Q99MB1 26-705, limits assumed).
T2 construct: Bought protein, coated on ELISA plates; also called mTLR3
T2 sequence (Q99MB1 26-705 limits assumed): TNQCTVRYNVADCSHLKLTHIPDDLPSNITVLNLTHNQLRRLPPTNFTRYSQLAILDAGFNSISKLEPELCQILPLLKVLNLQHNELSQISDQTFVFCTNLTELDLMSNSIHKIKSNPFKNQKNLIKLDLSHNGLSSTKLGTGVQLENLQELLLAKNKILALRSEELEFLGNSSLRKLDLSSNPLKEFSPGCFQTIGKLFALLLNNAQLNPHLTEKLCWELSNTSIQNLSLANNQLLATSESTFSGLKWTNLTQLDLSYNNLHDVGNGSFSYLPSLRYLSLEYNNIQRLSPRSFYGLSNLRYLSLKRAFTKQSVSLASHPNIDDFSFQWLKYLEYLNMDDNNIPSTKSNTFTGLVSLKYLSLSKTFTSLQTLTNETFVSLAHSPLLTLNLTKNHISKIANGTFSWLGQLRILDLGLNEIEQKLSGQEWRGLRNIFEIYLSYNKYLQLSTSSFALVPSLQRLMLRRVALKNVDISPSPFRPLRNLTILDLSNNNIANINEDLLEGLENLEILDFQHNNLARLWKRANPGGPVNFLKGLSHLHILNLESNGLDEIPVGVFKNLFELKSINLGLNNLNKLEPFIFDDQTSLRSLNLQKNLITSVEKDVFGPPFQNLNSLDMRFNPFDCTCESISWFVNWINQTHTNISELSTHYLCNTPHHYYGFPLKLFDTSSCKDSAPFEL

In assay [3] the target is T3, recombinant human TLR3, R&D Systems cat no: 1487-TR (human, UniProt O15455 27-700, limits assumed).
T3 construct: Bought protein, coated on ELISA plates; also called hTLR3

B1: 133-H4 (VHH)
VHH: EVQLVKSGGGLVQAGESLRLSCVASGISISTEVMGWYRQAPGKQGESVAIIKTDGSTYYPDSVKGRFAISRDNAKNTVYLQMNSLKLEDTGVYYCVIPGRGPGQGTQVTVSS
notes: not shown: C-terminal c-myc tag and (His)6 tag coded by the vector
In the case of B1, the binding result in assay [1] was “binds”.

B2: 133-H5 (VHH)
VHH: EVQLVESGGGLVQAGESLRLSCVVSGISISTKVMGWYRQAPGKQGESVAIIKTDGSTYYPDSVKGRFAISRDNAKNTVYLQMNSLKVEDTGVYYCIITGWGRGQGTQVTVSS
notes: as for B1
Regarding B2, in assay [1], the binding result is recorded as “binds”.

B3: 133-H9 (VHH)
VHH: EVQLVESGGGLVQPGGSLRLSCAASGSIFSINDMGWFRQAPGKEREHVALIRIKDGSIYYADSVKGRFTISRDNAKNTVYLQMNSLKPEDTAVYYCAAKTGTSFVYWGQGTQVTVSS
notes: as for B1
Regarding B3, the binding result in assay [1] is “binds”.

B4: 107-H7 (VHH)
VHH: EVQLVESGGGLVQPGGSLRLSCAASGSIFSINDMGWFRQAPGKEREHVALIRIKDGSIYYADSVKGRFTISRDNAKNTVYLQMNSLRPEDTAVYYCGAKTGTSFVYWGQGTQVTVSS
notes: as for B1
For B4, the binding result in assay [1] is “binds”.

B5: 133-F12 (VHH)
VHH: EVQLVESGGGLVQPGGSLRLSCAASGSIFSINDMGWFRQAPGKEREHVALIRFKDGSIYYADSVKGRFTISRDNAKNTVYLQMNSLKPEDTAVYYCAAKTGTSFVCWGQGTQVTVSS
notes: as for B1
In the case of B5, in assay [1], the binding result is given as “binds”.

B6: 133-F8 (VHH)
VHH: EVQLVESGGGLVQPGGSLRLSCAASGSIFSINDMGWFRQAPGKEREHVALIRFKDGSIYYADSVKGRFTISRDNAKSTVYLQMNSLKPEDTAVYYCAAKTGTSFVYWGQGTQVTVSS
notes: as for B1
On to B6, for which the binding result in assay [1] is reported as “binds”.

B7: 133-E12 (VHH)
VHH: EVQLVESGGGLVQPGGSLRLSCAASGSIFSISDMGWFRQAPGKEREHVALIRIKDGSIYYADSVKGRFTISRDNAENTVYLQMNSLRPEDTAVYYCGAKTGTSFVYWGQGTQVTVSS
notes: as for B1
For the molecule B7, in assay [1], the binding result is reported as “binds”.

B8: 132-G5 (VHH)
VHH: EVQLVESGGGLVQPGGSLRLSCAASGSILSIHYMGWFRQAPGKQRELVAGIPTGGTTNYADSVKGRFTMSRDNAKNTVDLQMNTMKPEDTAVYYCNAWISSERESRWLNYWGQGTQVTVSS
notes: as for B1
For B8, the binding result in assay [2] is listed as “binds”.

B9: 107-H8 (VHH)
VHH: EVQLVESGGGLVQAGGSLRLSCVASRGTLNNNPMAMGWFRRAPGKEREFVASIDWSGRSTYYADSVKGRFTISRDNAKNTVWLQINSLEPEDTSVYFCASRREYYTGISIVESDYPYWGQGTQVTVSS
notes: as for B1
Turning to B9, the binding result in assay [1] is given as “binds”.

B10: 132-B5 (VHH)
VHH: EVQLVESGGGLVQAGGSLRLSCVASGLVSSYYGMGWFRQAPGKEREFVASVNWSGKDTYYGDSVKGRFAVSRDSGKNTGFLQMNSLKSEDTAVYYCARRRGGGTGTGNPSEYDYWGQGTQVTVSS
notes: as for B1
For B10, the binding result in assay [2] is recorded as “binds”.

B11: 132-D3 (VHH)
VHH: VQLVESGGGLVQAGGSLRLSCVASGTSFSVGAAGWYRQAPGKQRDLVAEIYPSGSTIYADSVKGRFTISRDNAKNTVYLQMNALKPEDTAVYYCNVVRWGVDYWGQGTQVTVSS
notes: as for B1
Consider B11, for which the binding result in assay [2] is on record as “binds”.

B12: 132-A12 (VHH)
VHH: EVQLVESGGGLVQAGGSLRLSCAASGRNFRRNSMGWYRLTSGKQREMVARISNGGTTVYADSVKGRFTISRDNAKNTVYLQMNSLKFEDTAVYYCNAGDYTDSMYWGQGTQVTVSS
notes: as for B1
For the molecule B12, in assay [3], the binding result is recorded as “binds”.

B13: 132-B3 (VHH)
VHH: EVQLVESGGGLVQAGGSLRLSCVASGSPFSIGATGWYRQAPGKQRDLVAEIYPSGDTIYADSVKGRSTISRDNAKNTVYLQMNSLKPEDTAVYFCNVVRWGVDYWGQGTQVTVSS
notes: as for B1
For B13, in assay [2], the binding result is listed as “binds”.

B14: 132-H4 (VHH)
VHH: EVQLVESGGGLVQAGGSLRLSCVASGTSIMVGAMGWYRQAPGKQRDLVAEIYPSGSTIYEDSVKGRFTISRDNAKNTVYLQMNSLKPEDTAVYYCNVLRWGVDYWGQGTQVTVSS
notes: as for B1
On to B14, for which the binding result in assay [2] is “binds”.

B15: 132-E5 (VHH)
VHH: EVQLVESGGGLVQAGGSLRLSCVVSGSSFSVGAAGWYRQAPGKQRDLVAEIYPSGSTSYADSVKGRFTISRDNAKNIMYLQMNALKLEDTAVYYCNVVRWGVDYWGQGTQVTVSS
notes: as for B1
With B15, the binding result in assay [2] is given as “binds”.

B16: 132-D1 (VHH)
VHH: EVQLVESGGGLVQAGGSLRLSCVASGTSFSIGAAGWYRQAPGKQRDLLAEIYPSGSTIYADSVKGRFTISRDNAKNTVYLQMNALKPEDTAVYYCNAVRWGVDYWGQGTQVTVSS
notes: as for B1
Turning to B16, the binding result in assay [2] is recorded as “binds”.

B17: 132-B1 (VHH)
VHH: EVQLVESGGGLVQAGGSLRLSCVASGSPFSIGATGWYRQAPGKQRDLVAEIYPSGDTIYADSVKGRSTISRDNAKNTVYLQMNSMKPEDTAVYFCNVVRWGVDYWGQGTQVTVSS
notes: as for B1
B17: the binding result in assay [2] is listed as “binds”.

B18: 132-F7 (VHH)
VHH: EVQLVESGGGLVQAGGSLRLSCAASGNTFSFNVMGWYRQAPGKQRELVTIIDNGGTTNYADSVKGRFTISRDNAKNTVYLQMNSLKPEDTARYYCHARRGGTLYILGDSNYWGQGTQVTVSS
notes: as for B1
B18: in assay [3], the binding result was “binds”.

B19: 132-F12 (VHH)
VHH: EVQLVESGGGLVQAGGSLRLSCAASGNTFSFNVMGWYRQAPGNQRELVTIIDNSGTTNYADSVKGRFTVSRDNAKNTVYLQMNSLKPEDTARYYCHARRGGGLYILGESNYWGQGTQVTVSS
notes: as for B1
For B19, the binding result in assay [3] was “binds”.

B20: 132-G9 (VHH)
VHH: EVQLVESGGGLVQTGGSLRLSCAASGNTFNFNVMGWYRQAPGKQRELVTIIDNSGTTNYADSVKGRFTISRDNAKNTVYLQMNSLKPEDTARYFCHARRGGSLYTLGDSNYWGQGTQVTVSS
notes: as for B1
Regarding B20, the binding result in assay [3] is “binds”.

B21: 132-B12 (VHH)
VHH: EVQLVESGGGLVQAGGSLRLSCAASGNTFSINVMGWYRQAPGKQRELVTIMDDSGTTNYAGSVKGRFTISRDNAKNTVYLQMSSLKPEDTARYFCHARRGGTAYTLGDSNYWGQGTQVTVSS
notes: as for B1
B21: in assay [3], the binding result was “binds”.

B22: 132-B8 (VHH)
VHH: AVQLVESGGGLVQAGGSLRLSCAASGNTFSINVMGWYRQAPGKQRDLVTIIDDGGTTNYADSVKGRFTISRDNAKNTVYLQMNSLKPEDTARYFCHARRGGNAYTLGESNYWGQGTQVTVSS
notes: as for B1
Consider B22, for which, in assay [3], the binding result is listed as “binds”.

B23: 132-E10 (VHH)
VHH: EVQLVESGGGLVQAGGSLRLSCAASGNTFSINVMGWYRQAPGKQRELVTIIDNGGTTSYADSVKGRFTISRDNAKNTVYLQMNSLKPEDTARYTCHARRGGTLYTLGDSNYWGQGTQVTVSS
notes: as for B1
Regarding B23, the binding result in assay [3] is listed as “binds”.
